Legend:
Test in all cases: Deamination kinetics of compounds as substrates of adenosine deaminase
Assay type in all cases: biochemical, calf
Conditions in all cases: other: adenosine deaminase substrate; buffer solutions
[1] = substrate: Nc1ncnc2c1ncn2COCCO
Source text: (§1) By following an established procedure [Ogilvie, K. K.; Nguyen-Ba, N.; Gillen, M. F.; Radatus, B. K.; Cheriyan, U. O.; Hanna, H. R.; Smith, K. O.; Galloway, K. S. Synthesis of A Purine Acyclonucleoside Series Having Pronounced Antiviral Activity. The Glyceropurines. Can. J. Chem. 1984, 62, 241-252.], we determined the rates of deamination of VI, 13, 37, 40, and 42 in the presence of calf mucosal adenosine deaminase (EC 3.5.4.4) in buffer solutions.

[2] = substrate: Nc1ncnc2c1ncn2COCCP(=O)(O)O
Source text: as §1

[3] = substrate: Nc1ncnc2c1ncn2COCCP(=O)(O)O[C@H]1[C@H](O)[C@H](n2cnc3c(N)ncnc32)O[C@@H]1CO
Source text: as §1

[4] = substrate: Nc1ncnc2c1ncn2[C@@H]1O[C@H](CO)[C@@H](O)[C@@H]1O
Source text: as §1

B1: calf mucosal adenosine deaminase (EC 3.5.4.4) (Bos taurus) (protein)
chain: MAQTPAFNKPKVELHVHLDGAIKPETILYYGRKRGIALPADTPEELQNIIGMDKPLSLPEFLAKFDYYMPAIAGCREAVKRIAYEFVEMKAKDGVVYVEVRYSPHLLANSKVEPIPWNQAEGDLTPDEVVSLVNQGLQEGERDFGVKVRSILCCMRHQPSWSSEVVELCKKYREQTVVAIDLAGDETIEGSSLFPGHVKAYAEAVKSGVHRTVHAGEVGSANVVKEAVDTLKTERLGHGYHTLEDATLYNRLRQENMHFEVCPWSSYLTGAWKPDTEHPVVRFKNDQVNYSLNTDDPLIFKSTLDTDYQMTKNEMGFTEEEFKRLNINAAKSSFLPEDEKKELLDLLYKAYGMPSPASAEQCL
notes: calf mucosal adenosine deaminase; from tissue; host or cells: calf mucosa
- Km [1]: 138.0 µM
- Km [2]: 247.5 µM
- Km [3]: 166.2 µM
- Km [4]: 45.3 µM

From patent publication US5733890A, “Adenylate analogs as potent anti-herpes virus agents” (National Science Council, priority 1996, dated 1998)
